The target of this series is T1, Lin28A (GST-His6 fusion) (Homo sapiens, UniProt Q9H9Z2 1-209).
T1 sequence: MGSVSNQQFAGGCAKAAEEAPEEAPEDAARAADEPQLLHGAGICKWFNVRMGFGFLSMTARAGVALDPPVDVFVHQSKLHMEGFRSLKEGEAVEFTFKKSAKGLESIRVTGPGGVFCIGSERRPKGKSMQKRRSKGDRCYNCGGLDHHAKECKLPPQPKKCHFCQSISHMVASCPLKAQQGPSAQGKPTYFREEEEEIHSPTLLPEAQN
In words: EMSA.

The text below walks through data of paper PMC4779955.

B1: Motif1 bubble duplex (dsDNA)
DNA 1: CTTCTGGCGCTGTCCATCACAAGGTGCTGAACCCAG
DNA 2: CTGGGTTCAGCACCATTTTTTGCGCCAGAAG
In the case of B1, the binding result is given as “binds”.
